Experimental data taken from US20110008369A1 (Merck Sharp & Dohme, published 2011).

Tests used:
[1] = biological target: T1, homologous Fc (R&D Systems), Fc control surface (human, UniProt P01857-1 100-330 = IgG part, limits assumed); test: SPR (Biacore 2000), Fc immobilised on a CM5 chip
T1 construct: domain: Fc; Counter-screen surface in the SPR assay; also called human Fc portion
From the text: Biacore® instruments incorporate microfluidics technology and surface plasmon resonance (SPR). The angle of polarized light reflecting from the side of a gold-coated sensor opposite to the solution phase is a function of the evanescent wave extending into the solution phase and sensitive to the refractive index near that interface. This refractive index is proportional to the mass density of adsorbates (e.g., an antigen or antibody) near the sensor chip interface, and reported in Response Units. […] Time-resolved signals were acquired from all surfaces simultaneously, and the signal from the blank control surface was subtracted as a negative control.

[2] = biological target: T2, human PD-1 (Programmed Cell Death 1), expressed on cells (human, UniProt Q15116 25-288); test: cell binding; 0.2 ug/ml IgG on activated human CD4+ cells, 37 C
T2 construct: also called human PD-1 on 293 cells
T2 sequence (Q15116 25-288 limits assumed): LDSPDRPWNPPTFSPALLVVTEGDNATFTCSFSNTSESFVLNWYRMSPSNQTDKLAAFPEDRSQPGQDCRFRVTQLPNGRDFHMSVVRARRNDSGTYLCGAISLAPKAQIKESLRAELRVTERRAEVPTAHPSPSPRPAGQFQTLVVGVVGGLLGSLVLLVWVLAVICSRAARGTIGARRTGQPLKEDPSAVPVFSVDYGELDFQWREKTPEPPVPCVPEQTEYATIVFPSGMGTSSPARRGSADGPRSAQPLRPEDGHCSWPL
Experimental: (§1) 293 cells were transfected to express PD-1 on their cell membranes. Human CD4⁺ cells were activated by incubation with anti-CD3/anti-CD28 beads (approximately 1 bead: 1-2 cells) for 48-72 hours at 37° C. Rhesus CD4⁺ cells (2×10⁶ cells/mL) were activated by incubation in plates coated with 1 μg/mL anti-CD3/anti-CD28 for 24-72 hours at 37° C.

[3] = biological target: T3, rhesus PD-1 naturally expressed on activated rhesus CD4+ cells (rhesus macaque, UniProt B0LAJ2 25-288); test: cell binding; 1.0 ug/ml IgG on activated rhesus CD4+ cells, 37 C
T3 sequence (B0LAJ2 entry or part of it limits assumed): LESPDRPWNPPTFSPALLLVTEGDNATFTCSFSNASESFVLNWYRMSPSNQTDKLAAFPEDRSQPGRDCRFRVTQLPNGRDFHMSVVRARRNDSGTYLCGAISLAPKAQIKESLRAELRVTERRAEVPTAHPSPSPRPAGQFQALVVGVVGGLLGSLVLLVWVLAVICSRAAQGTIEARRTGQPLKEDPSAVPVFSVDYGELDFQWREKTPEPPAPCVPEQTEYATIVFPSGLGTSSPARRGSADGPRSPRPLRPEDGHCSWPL
Experimental: as §1

[4] = biological target: T4, recombinant human PD-1/Fc fusion protein (R&D Systems) (human, UniProt Q15116 25-167); test: solution-phase ELISA of IgG with PD-1/Fc; mean ± standard error of the mean
T4 construct: Bought protein; also called immobilized PD-1; not shown: human Fc portion of the bought fusion protein
T4 sequence (Q15116 25-167 limits assumed): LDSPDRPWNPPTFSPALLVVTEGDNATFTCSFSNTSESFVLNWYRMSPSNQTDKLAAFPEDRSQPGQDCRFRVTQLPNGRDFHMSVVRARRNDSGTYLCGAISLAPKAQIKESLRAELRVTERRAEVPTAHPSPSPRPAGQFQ
Experimental: High-binding 96-well ELISA plates were coated with 50 μL 2 μg/mL PD-1/Fc overnight. After washing and blocking, 50 μL of each PD-1/Fc: IgG mixture was transferred to the ELISA plate, incubated for 30 minutes, washed, incubated with goat anti-mouse antibody conjugated to HRP (human absorbed) for one hour, washed, developed with 10-Acetyl-3,7-dihydroxyphenoxazine ([…]) for three minutes, and read on a fluorescent plate reader. All incubations occurred at room temperature. Data were analyzed as described in K. High et al. Several replicates were conducted on multiple plates and multiple days and analyzed independently to determine a range of experimental equilibrium affinity Kd values.

[5] = biological target: T2, human PD-1 (Programmed Cell Death 1), …; test: inhibition of recombinant PD-L1/Fc binding to 293 cells expressing human PD-1 by 20 ug/ml IgG, 4 C
Experimental: as §1

[6] = biological target: T2, human PD-1 (Programmed Cell Death 1), …; test: inhibition of recombinant PD-L1/Fc binding to activated human CD4+ cells by 0.2 ug/ml IgG, 37 C (mean of 2)
Experimental: as §1

[7] = biological target: T3, rhesus PD-1 naturally expressed on …; test: inhibition of recombinant PD-L1/Fc binding to activated rhesus CD4+ cells by 0.2 ug/ml IgG, 37 C (mean of 2)
Experimental: as §1

[8] = biological target: T4, recombinant human PD-1/Fc fusion …; test: SPR (Biacore T100), monomeric Fab over covalently immobilised PD-1/Fc; range of fit Kd
From the text: Fractions from the purification column were collected and tested in the Caliper LabChip® system. Only fractions containing pure monomeric Fabs were selected for SPR analysis. Beginning with concentrations determined from the Caliper LabChip®, dilution series were made for each Fab and tested on a Biacore® T100 with the standard kinetic affinity wizard against covalently immobilized PD-1/Fc fusion protein.

Binder	binding result [1]	MFI [2]	MFI [3]	Kd [4]	% inhibition [5]	% inhibition [6]	% inhibition [7]	Kd [8]
mAb 2.3A9 (antibody, V domains shown, Murine IgG from a hybridoma) VH: QVQLQQSDAELVKPGTSVKISCKASGYTFTDHAIHWLKQEPDQGLEWIGYISPGYGDIEYNEKFKGKATLTADKSSSTAYMQLSSLTSEDSAVYFCKVTTGYWGQGTTLTVS VL: not shown	no binding (tested: 5 ug/mL (hybridoma supernatant))	134 MFI	–	–	–	–	–	–
mAb 1.8A10 (antibody, V domains shown, Murine IgG from a hybridoma) VH: EVQLVESGGGLVKPGGSLKLSCAASGFTFSNYDMSWIRQTPEKRLEWVAYISGGGGNTYYPDTLKGRFTISRDNAKNTLYLQMSSLKSEDTAMFYCVRISLTGIFDYWGQGTTLTVSS VL: DVLMTQTPLSLPVSLGDQASISCRSSQSIVQSNGNTYLEWYLQKPGQSPKLLIYKVSNRFSGVPDRFSGSGSGTDFTLKISRVEAEDLGVYYCFQGSHVPWTFGGGTKLEIKR	no binding (tested: 5 ug/mL (hybridoma supernatant))	129 MFI	310 MFI	0.44 nM	99.4%	51.7%	24%	–
monomeric Fab of mAb 1.8A10 (Fab, V domains shown, also called 1.8A10 Fab) VH: EVQLVESGGGLVKPGGSLKLSCAASGFTFSNYDMSWIRQTPEKRLEWVAYISGGGGNTYYPDTLKGRFTISRDNAKNTLYLQMSSLKSEDTAMFYCVRISLTGIFDYWGQGTTLTVSS VL: DVLMTQTPLSLPVSLGDQASISCRSSQSIVQSNGNTYLEWYLQKPGQSPKLLIYKVSNRFSGVPDRFSGSGSGTDFTLKISRVEAEDLGVYYCFQGSHVPWTFGGGTKLEIKR	–	–	–	–	–	–	–	34 to 43 nM
mAb 20B3.1 (antibody, V domains shown, Murine IgG from a hybridoma) VH: EVKLVESGGGLVKPGGSLKLSCAASGFTFSSFGMSWVRQTPEKRLEWVATISGGGSNTYYPDSVKGRFTISRDNAKNNLYLQMTSLTSEDTALYYCTRIYDVAWFAYWGQGTLVTVS VL: not shown	no binding (tested: 5 ug/mL (hybridoma supernatant))	154 MFI	1240 MFI	–	98.2%	59.6%	75.3%	–
mAb 1G7 (antibody, V domains shown, Murine IgG from a hybridoma) VH: EIQLQQSGPELVKPGASVKVSCKASGYAFTSYNIYWVKQSHGKSLEWIGYIDLYNGDTSYNEKFKGKATLTVDKSASTAYMHLNSLTSEDSAVYYCSREGRLSFDYWGQGTLVTVSA VL: DIVLTQSPASLAVSLGQRATISCRASESVDSYGNSFMNWYQQKPGQPLKLLIYLASNLDSGVPARFSGSGSGTDFSLTIDPVEADDPATYYCQQNNEVPLTFGAGTKLELKR	no binding (tested: 5 ug/mL (hybridoma supernatant))	137 MFI	812 MFI	–	98.8%	74.3%	56.5%	–
monomeric Fab of mAb 3H4 (Fab, V domains shown, also called 3H4 Fab) VH: QIQLQQSGPELVKPGASVKISCKASGYTFTDYYINWVKQKPGQGLEWIGWIYPGSVNTKYNEKFRGKATLTVDTSSSTAYIQLSGLTSEDTAVYFCARYSNWFFDVWGAGTAVTVS VL: DIVMTQSPSSLSASLGERVSLTCRASQEISGYLSWLQQKPDGTIKRLIYAASTLDSGVPKRFSGSRSGSDYSLSISSLESEDFADYYCLQYASYPYTFGGGTKLEIKR	–	–	–	–	–	–	–	63 to 77 nM
mAb 3H4 (antibody, V domains shown, Murine IgG from a hybridoma) VH: QIQLQQSGPELVKPGASVKISCKASGYTFTDYYINWVKQKPGQGLEWIGWIYPGSVNTKYNEKFRGKATLTVDTSSSTAYIQLSGLTSEDTAVYFCARYSNWFFDVWGAGTAVTVS VL: DIVMTQSPSSLSASLGERVSLTCRASQEISGYLSWLQQKPDGTIKRLIYAASTLDSGVPKRFSGSRSGSDYSLSISSLESEDFADYYCLQYASYPYTFGGGTKLEIKR	no binding (tested: 5 ug/mL (hybridoma supernatant))	130 MFI	–	0.011 nM	–	–	–	–
mAb 7G3 (antibody, V domains shown, Murine IgG from a hybridoma) VH: QVQLQQSGTELVRPGVSVKISCKGSGYSFTDYALHWMKQSHAKSLEWIGVISTHYGDTVYNQRFKGKATMTVDKSSSTAYMELARLTSEDSAIYYCAREGYGSLFYFDQWGQGTPLTVS VL: CLMTQTPLSLPVSLGDQASISCRSSQTIVHSDGNTYLEWYLQKSGQSPKLLIYKVSNRFSGVPDRFSGSGSGTDFTLKISRVEAEDLGVYYCFQGSHVPYTFGGGTRLEIRR	no binding (tested: 5 ug/mL (hybridoma supernatant))	129 MFI	655 MFI	–	92.7%	57.8%	25.5%	–
monomeric Fab of mAb 1B8 (Fab, V domains shown, also called 1B8 Fab) VH: EVQLVLSGGGFVQPGGSLKLSCAASGFTFSSYAMSWVRQNPERRLVWVATITGGGRNTYYPDSVKGRFTISRDNAKNTLYLQMSSLRSEDTAMYYCTRQGYDGYTWFAYWGQGTLVTVS VL: not shown	–	–	–	–	–	–	–	5.3 to 7 nM
mAb 1B8 (antibody, V domains shown, Murine IgG from a hybridoma; also called murine 1B8; fully murine 1B8 mAb) VH: EVQLVLSGGGFVQPGGSLKLSCAASGFTFSSYAMSWVRQNPERRLVWVATITGGGRNTYYPDSVKGRFTISRDNAKNTLYLQMSSLRSEDTAMYYCTRQGYDGYTWFAYWGQGTLVTVS VL: not shown	no binding (tested: 5 ug/mL (hybridoma supernatant))	145 MFI	1190 MFI	0.03 nM	97.6%	82.1%	82.3%	–
